Experiments:
[1] = test system: MyD88 deficient mouse embryonic fibroblasts; assay: Cytokine synthesis in mouse embryonic fibroblasts from MyD88 deficient mice; format: cell-based; conditions: 24 h; FBG 1 μM, PAM3, LPS, TNFα 100 ng/ml, IL-1 5 ng/ml
Source text: Homozygous MyD88 deficient mice on a C57BL/6 background were provided by the Sanger Institute (Cambridge, UK). Age matched congenic inbred wild type C57B/L6 mice were obtained from Charles River (Margate, UK). For isolation of mouse embryo fibroblasts one female aged 8-10 weeks was mated with two males aged 8-10 weeks. For isolation of bone marrow derived macrophages mice were female and between 10-12 weeks of age at the time of experimentation.
MEFs express high levels of mRNA of all 9 murine TLRs and are specifically and highly responsive to TLR ligand activation. […] Fibroblasts were cultured at 2×10^4 cells/well in DMEM containing 10% (v/v) FBS and 100 U/ml penicillin/streptomycin in 96-well tissue culture plates for 24 hours before stimulation.
(§1) Cells were incubated for 24 hours at 37° C. with the indicated doses of tenascin-C and recombinant tenascin-C fragments (1.0 μM-1.0 nM). Cells were also stimulated where indicated with LPS (1 ng/ml for human macrophages, 10 ng/ml for human fibroblasts, RA membrane cells and HEKs, 100 ng/ml for MEFS and BMDMs and 10 ng/ml for HEKS), PAM3 (10 ng/ml for human macrophages, human fibroblasts, and HEKs, 100 ng/ml for MEFs and BMDMs), murine IL-1 (5 ng/ml for MEFS) and murine TNF-α (100 ng/ml for MEFS). Unless specifically stated otherwise rough LPS was used for in vitro studies.
(§2) Supernatants were subsequently examined for the presence of the cytokines TNF-α, IL-6, and IL-8 by enzyme-linked immunosorbent assay (ELISA) according to the manufacturer's instructions. Absorbance was read on a spectrophotometric ELISA plate reader (Labsystems Multiscan Biochromic, Vantaa, Finland) and analyzed using the Ascent software program (Thermo Labsystems, Altrincham, UK).

[2] = test system: RA synovial membrane cells; assay: Cytokine synthesis in RA synovial membrane cells stimulated with FBG; format: cell-based, human; conditions: FBG 1.0-0.01 μM, 24 h, over spontaneous production
Source text: RA membrane cells (representing a mixed population of all synovial cell types) were isolated from synovial membranes obtained from patients undergoing joint replacement surgery as previously described (Brennan (1989)). RA synovial fibroblasts were isolated from the mixed population of RA membrane cells as previously described (Brennan (1989)). The study was approved by the local Trust ethics committee (Riverside NHS Research Committee), and waste tissue (synovium after joint replacement surgery) was obtained only after receiving signed informed consent from the patient and anonymyzing the tissue to protect patient identity.
Immediately after isolation, RA membrane cells and macrophages were cultured at 1×10^5 cells/well in RPMI 1640 containing 10% (v/v) FBS and 100 U/ml (Units/ml) penicillin/streptomycin in 96-well tissue culture plates for 24 hours before stimulation. […]
as §2

[3] = test system: knee joint of wild type mice; assay: Intra-articular injection of FBG into the knee joint of wild type mice; format: in vivo
Description: Wild type mice were anesthetized by intraperitoneal injection of 150 μl of Hypnorm diluted 1:10 in sterile water and then injected with 100 ng, 1 or 3 μg FBG in 10 μl of sterile PBS into the right knee joint using a sterile 33-gauge microcannula. Control mice received an injection of 10 μl PBS alone or were not injected.
On days 3 and 7, mice were euthanized, the knee joints were excised and fixed in 10% (volume/volume) buffered formalin, decalcified, with 10% EDTA and processed to paraffin.
Coronal tissue sections (4 μm) were cut at 7 depths throughout the joint; 80 μm apart and stained with hematoxylin and eosin or Safranin-O to assess joint pathology.
Inflammation (the influx of inflammatory cells into synovium (infiltrate) and the joint cavity (exudates), was graded using an arbitrary scale from 0 (no inflammation) to 3 (severe inflammation). Chondrocyte death was determined as the percentage of cartilage area containing empty lacunae in relation to the total area. Cartilage surface erosion was determined as the amount of cartilage lost in relation to the total cartilage area. Bone destruction was determined in 10 different areas of the total knee joint section. Destruction was graded on a scale of 0 (no damage) to 3 (complete loss of bone structure). Histological analysis was performed by an investigator who was blinded to the experimental groups. The mean score for each animal in an experimental group was calculated by averaging the histopathologic scores in at least 5 section depths per joint.

[4] = test system: primary human macrophages; assay: Cytokine synthesis in primary human macrophages stimulated with tenascin-C or its domains; format: cell-based
Description: Human monocytes were isolated from peripheral blood (London Blood Bank) and macrophages were derived from monocytes after differentiation for 4 days with 100 ng/ml of M-CSF as previously described (Foxwell (1998)).
Immediately after isolation, RA membrane cells and macrophages were cultured at 1×10^5 cells/well in RPMI 1640 containing 10% (v/v) FBS and 100 U/ml (Units/ml) penicillin/streptomycin in 96-well tissue culture plates for 24 hours before stimulation. Synovial fibroblasts (used only at either passage number 2 or 3) were cultured at 1×10^4 cells/well in DMEM containing 10% (v/v) FBS and 100 U/ml penicillin/streptomycin in 96-well tissue culture plates for 24 hours before stimulation.
as §1
Where stated, cells were pre-incubated with 10 μg/ml anti-CD14 antibody, 10 μg/ml IL1 receptor antagonist, 10 μg/ml anti-TLR2 antibody, 25 μg/ml anti-TLR4 antibody, 10 or 25 μg/ml isotype control antibody, 25 μg/ml polymyxin B, or 1 μg/ml msbB LPS, for 30 minutes at 37° C. before stimulation. Where stated, recombinant tenascin-C and FBG, and LPS were boiled for 15 minutes before addition to cells
as §2

B1: FBG: recombinant fibrinogen-like globe, 227 amino acid globular domain at the C terminal of tenascin-C (protein)
chain: GLLYPFPKDCSQAMLNGDTTSGLYTIYLNGDKAEALEVFCDMTSDGGGWIVFLRRKNGRENFYQNWKAYAAGFGDRREEFWLGLDNLNKITAQGQYELRVDLRDHGETAFAVYDKFSVGDAKTRYKLKVEGYSGTAGDSMAYHNGRSFSTFDKDTDSAITNCALSYKGAFWYRNCHRVNLMGRYGDNNHSQGVNWFHWKGHEHSIQFAEMKLRPSNFRNLEGRRKRA
cytokine synthesis in embryonic fibroblasts with targeted deletion of MyD88 [1]: does not stimulate | synthesis of IL-6, IL-8 and TNF-α in RA synovial membranes [2]: further enhanced | joint histology ([3]; 100 ng FBG intra-articular): No inflammation or proteoglycan loss | joint histology ([3]; 1 μg FBG intra-articular, 3 days): inflammatory cell infiltration (FIG. 6f), mild synovitis, pannus formation (FIG. 6g) and proteoglycan loss (FIG. 6h) was observed | histological quantification: cartilage surface erosion and bone damage ([3]; 1 μg FBG, 3 days (FIG. 6i)): modest amount | histological quantification: cellular infiltrate and exudate and chondrocyte death ([3]; 1 μg FBG, 3 days (FIG. 6i)): high levels | joint histology ([3]; 3 μg FBG intra-articular): A similar response | joint inflammation ([3]; intra-articular 100 ng, 1 or 3 μg): transient and dose dependent stimulation of joint inflammation | TNF-α, IL-6 and IL-8 synthesis in human macrophages ([4]; 1.0 μM tenascin-C domains, 24 h): stimulated | cytokine stimulation: heat sensitivity and effect of polymyxin B ([4]; boiled 15 minutes, 25 μg/ml polymyxin B pre-incubation, human macrophages and synovial fibroblasts): heat sensitive and unaffected by polymyxin B

From US20200362024A1, “BIOLOGICAL MATERIALS AND USES THEREOF” (IMPERIAL INNOVATIONS LIMITED, priority 2009, published 2020)
